Data: US10239925B2, “Peptides and combination of peptides for use in immunotherapy against ovarian cancer and other cancers” (IMMATICS BIOTECHNOLOGIES GMBH, priority 2015, dated 2019)

molecular target: HLA-A*02:01 (Homo sapiens, UniProt P04439, D140Y/D185E/D98H/E176V/E277Q/G131W/G231S/I119V/I121R/I166T/I218V/L300P/L318F/N151K/N90K/P208A/P217A/Q86G/Q94H/R138H/R169H/T345S); assay: MHC binding assay (UV-ligand exchange, anti-β2m ELISA, peptide exchange yield); details: binding to HLA-A*02:01
Outline: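 Yield of stabilized complexes quantified via the β2m light chain in an ELISA (streptavidin capture, 100-fold diluted monomers, HRP anti-β2m 2 ug/ml at 37 °C, TMB, A450). The complexes come from UV-triggered replacement of a photocleavable ligand by the candidate peptide.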

Substance | Peptide exchange (MHC class I binding score, peptide exchange yield)
139 (SVMEVNSGIYRV; listed as Homo sapiens) [compound 139] | “+++” (>50 = +++)
537 (TLAPGEVLRSV; listed as Homo sapiens) [compound 537] | “+++” (>50 = +++)
59 (IMEDIILTL; listed as Homo sapiens) [compound 59] | “+++” (>50 = +++)
524 (ALIENLTHQI; listed as Homo sapiens) [compound 524] | “++” (>20% = ++)
545 (LLADLLHNV; listed as Homo sapiens) [compound 545] | “+++” (>50 = +++)
492 (SLFDGFADGLGV; listed as Homo sapiens) [compound 492] | “+++” (>50 = +++)
306 (ALVNVQIPL; listed as Homo sapiens) [compound 306] | “+++” (>50 = +++)
109 (IILSILEQA; listed as Homo sapiens) [compound 109] | “++++” (>75% = ++++)
554 (LLMPSSEDLLL; listed as Homo sapiens) [compound 554] | “+++” (>50 = +++)
342 (HIYDKVMTV; listed as Homo sapiens) [compound 342] | “+++” (>50 = +++)
239 (AAFAGKLLSV; listed as Homo sapiens) [compound 239] | “+++” (>50 = +++)
148 (ALNPEIVSV; listed as Homo sapiens) [compound 148] | “++” (>20% = ++)
593 (GLPRFGIEMV; listed as Homo sapiens) [compound 593] | “+++” (>50 = +++)
528 (SVAEGRALMSV; listed as Homo sapiens) [compound 528] | “+++” (>50 = +++)
52 (FLLAHGLGFLL; listed as Homo sapiens) [compound 52] | “++++” (>75% = ++++)
305 (SIANFSEFYV; listed as Homo sapiens) [compound 305] | “++++” (>75% = ++++)
95 (SVIPQIQKV; listed as Homo sapiens) [compound 95] | “+++” (>50 = +++)
111 (YVWGFYPAEV; listed as Homo sapiens) [compound 111] | “+++” (>50 = +++)
455 (SLLKEPQKVQL; listed as Homo sapiens) [compound 455] | “++” (>20% = ++)
439 (YLLQEIYGI; listed as Homo sapiens) [compound 439] | “+++” (>50 = +++)
574 (YLLQEPPRTV; listed as Homo sapiens) [compound 574] | “++” (>20% = ++)
509 (FLFDTKPLIV; listed as Homo sapiens) [compound 509] | “+++” (>50 = +++)
341 (SQIALNEKLVNL; listed as Homo sapiens) [compound 341] | “+++” (>50 = +++)
123 (NLWDLTDASVV; listed as Homo sapiens) [compound 123] | “+++” (>50 = +++)
187 (RQISIRGIVGV; listed as Homo sapiens) [compound 187] | “+++” (>50 = +++)
